For this assay, the system named is CS3D. Briefly: BLI koff of purified Fabs from CS3D biopanning. The format is binding. As to the method: First, standard biopanning (FIG. 1) was performed with Ag immobilized magnetic beads. A total of six rounds were performed with increasing stringency of washes and decreasing amounts of Ag per round. Assuming strong enrichment occurred continuously throughout the campaign, 95 colonies were randomly picked each round 4-6 (285 clones total) for candidate hit screening.
In efforts to identify improved binders, BIAS was performed with identical clones picked previously that were randomly sequenced. […] Therefore, we hypothesized that strong growth/display propensity biases were a dominant factor during the campaign, leading primarily to the identification of low-affinity binders.
Fluorescent activated sorting was applied to round 4 as both the population percentage and the normalized MFI of the shoulder population are the highest (FIG. 7). The shoulder population (top ~4%) was sorted along with the majority population (bottom ~96%) and both populations were used to infect TG1 (E. coli) cells. […] BIAS hits of the top ~4% sorted population were sequenced, and a new candidate binder, SP1-B3, was identified, along with identical clones of previously identified low-affinity binders.
All buffers were filter sterilized with […] filters prior to preparing samples. Black 384 well microplates were used to set up BLI plates and streptavidin tips were purchased by Sartorius. Kinetic constants of Fabs were determined by Octet RED384 system with continuous shaking at 1000 rpm in RT. Prior to the experiment, biological tips (model name) were presoaked in buffer to allow for equilibration for 1 hour. Data were analyzed using 1:1 interaction model on the ForteBio data analysis software 12.0.
Freshly transformed BL21 (DE3) E. coli single colony clones were picked and inoculated into 50 ml of 2×YT media containing 2% glucose and […] Ampicillin. Starter cultures were grown overnight at 37 °C with 200 rpm shaking. […]

Some results are limits rather than exact numbers.

B1: SP1-B3: anti-CS3D Fab from RAPID sorting of round 4; VH SEQ ID NO: 3, VL SEQ ID NO: 4 (antibody, V domains shown)
VH: QVTLQQSGPGLVKPSQTLSLTCAISGDSVSSNSAAWNWIRQSPSRGLEWLGRTYYRSKWFTYYAASVKGRISINRDTSKNQFSLQLNSVTPDDTAVYFCARGSGGYIDHWGQGTLVTVSS
VL: QAVLTQPSSLSASPGASASLTCTLRSGINVDSYRIYWYQQKPGSPPQYLLRYKSDSDKQQGSGVPSRFSGSKDASANAGILLISGLQSEDEADYYCMIWHSSAVVFGGGTKLTVL
On to B1, for which the “koff fold lower than the Fab with the highest koff” value was > 20 fold and the “koff fold lower than the previously identified Fab with the lowest koff” value is ~ 3 fold. Further, under “measured at 2 μM Fab”, the dissociation rate constant (koff) (as a rule, the first-order rate constant of dissociation) came to 0.0211 s⁻¹.

For the origin of these results see patent US20260234290A1, “Antibodies to Stat3 Decoy Oligonucleotide” (The Regents of the University of California, priority 2023, published 2026).
